Reference: patent publication US9669118B2, “Method of labelling a biologically active molecule with 5-fluoro-5-deoxypentose or a 3-fluoro-3-deoxypentose” (UNIVERSITY COURT OF THE UNIVERSITY OF ST. ANDREWS, priority 2011, dated 2017)

Test: Stability study of the conjugate in phosphate-buffered saline
Format: physicochemical
Settings: 37° C.
Protocol: A stability study confirmed that the conjugate 4a is stable in phosphate-buffered saline (PBS) at least for 8 hours at 37° C., which is stable enough for PET applications.

SMILES: N[C@@H](CCC(=O)N[C@@H](CSC1CC(=O)N(CCCCCCON=C[C@H](O)[C@H](O)[C@H](O)CF)C1=O)C(=O)NCC(=O)O)C(=O)O (stereo partly shown) [conjugate 4a]
- stable in phosphate-buffered saline (PBS): ≥ 8 h
